Results taken from patent publication US20190071514A1, “ANTI-CD39 ANTIBODIES” (INNATE PHARMA, priority 2016, published 2019).
Changes are numbered by the printed parent chain. Names may count otherwise. One block for each molecule: values may come before it.

Legend:
[1] = molecular target: T1, human CD39 endogenously expressed on Ramos human lymphoma cells (human, UniProt P49961 1-510); test: cell-based or functional assay
T1 sequence: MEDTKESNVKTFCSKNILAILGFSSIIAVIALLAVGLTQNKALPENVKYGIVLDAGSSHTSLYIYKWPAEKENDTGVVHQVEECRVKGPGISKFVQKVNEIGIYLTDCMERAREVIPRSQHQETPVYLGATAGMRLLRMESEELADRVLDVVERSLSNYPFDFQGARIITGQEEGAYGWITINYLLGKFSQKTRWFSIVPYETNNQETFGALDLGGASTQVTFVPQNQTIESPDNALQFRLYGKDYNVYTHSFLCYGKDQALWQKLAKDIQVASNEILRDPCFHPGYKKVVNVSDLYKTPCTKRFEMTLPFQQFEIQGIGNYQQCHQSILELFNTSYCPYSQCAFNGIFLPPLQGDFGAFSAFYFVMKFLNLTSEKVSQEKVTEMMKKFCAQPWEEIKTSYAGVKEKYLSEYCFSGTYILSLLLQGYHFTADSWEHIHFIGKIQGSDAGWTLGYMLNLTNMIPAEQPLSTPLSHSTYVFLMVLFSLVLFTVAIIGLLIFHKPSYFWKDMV

Human CD39-L2 = molecular target: T2, Human CD39-L2 (human, UniProt O75354 61-484, limits assumed); test: ELISA, recombinant isoform coated, dose range of antibody
T2 construct: Recombinant protein coated on ELISA plates; also called NTPDase6; ENTPD6
T2 sequence: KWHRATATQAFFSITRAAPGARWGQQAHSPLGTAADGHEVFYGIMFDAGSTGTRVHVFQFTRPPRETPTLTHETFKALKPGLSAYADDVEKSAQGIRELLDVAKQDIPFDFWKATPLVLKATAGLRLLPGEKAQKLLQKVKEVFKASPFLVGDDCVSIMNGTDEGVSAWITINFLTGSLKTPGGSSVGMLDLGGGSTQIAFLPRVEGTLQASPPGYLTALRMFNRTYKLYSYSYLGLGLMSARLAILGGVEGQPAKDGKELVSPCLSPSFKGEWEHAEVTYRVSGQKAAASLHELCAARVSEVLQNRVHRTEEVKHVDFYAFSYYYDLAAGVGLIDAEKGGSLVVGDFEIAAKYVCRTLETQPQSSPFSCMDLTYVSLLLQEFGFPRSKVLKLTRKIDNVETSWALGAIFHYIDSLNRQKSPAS
Experimental: (§1) Antibodies were tested for binding to recombinant human CD39 isoforms (Rec-huCD39 isoforms). The CD39 isoforms having amino acid sequences shown in the table below were coated in 96-well plate in PBS 1× at 500 ng/ml or 1 μg/ml at 4° C. overnight. Wells were washed in TBS Tween 20, and further saturated 2H at RT in TBS Blocking buffer (Thermo Fisher Scientific Inc.). Dose range concentration of primary antibody was incubated in TBS blocking buffer for 2 h at RT. Wells were washed in TBS Tween 20. […] Optical density was measured on Enspire at OD=450.

Human CD39-L3 = molecular target: T3, Human CD39-L3 (human, UniProt O75355 44-485, limits assumed); test: as above
T3 construct: Recombinant protein coated on ELISA plates; also called NTPDase3; ENTPD3
T3 sequence: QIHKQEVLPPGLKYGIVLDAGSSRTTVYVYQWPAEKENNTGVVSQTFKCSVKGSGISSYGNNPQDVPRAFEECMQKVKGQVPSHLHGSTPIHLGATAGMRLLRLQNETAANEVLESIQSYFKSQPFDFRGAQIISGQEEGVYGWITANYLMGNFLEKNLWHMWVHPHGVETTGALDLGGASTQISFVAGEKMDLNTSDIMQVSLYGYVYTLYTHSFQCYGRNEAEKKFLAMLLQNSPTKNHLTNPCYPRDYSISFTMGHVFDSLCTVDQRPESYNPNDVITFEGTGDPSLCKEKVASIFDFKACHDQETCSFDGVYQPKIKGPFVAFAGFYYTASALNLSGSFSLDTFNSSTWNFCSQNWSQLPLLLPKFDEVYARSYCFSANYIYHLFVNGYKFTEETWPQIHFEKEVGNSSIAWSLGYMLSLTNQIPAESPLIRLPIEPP
Experimental: as §1

Human CD39-L4 = molecular target: T4, Human CD39-L4 (human, UniProt O75356 25-428); test: as above
T4 construct: Recombinant protein coated on ELISA plates; also called NTPDase5; ENTPD5
T4 sequence: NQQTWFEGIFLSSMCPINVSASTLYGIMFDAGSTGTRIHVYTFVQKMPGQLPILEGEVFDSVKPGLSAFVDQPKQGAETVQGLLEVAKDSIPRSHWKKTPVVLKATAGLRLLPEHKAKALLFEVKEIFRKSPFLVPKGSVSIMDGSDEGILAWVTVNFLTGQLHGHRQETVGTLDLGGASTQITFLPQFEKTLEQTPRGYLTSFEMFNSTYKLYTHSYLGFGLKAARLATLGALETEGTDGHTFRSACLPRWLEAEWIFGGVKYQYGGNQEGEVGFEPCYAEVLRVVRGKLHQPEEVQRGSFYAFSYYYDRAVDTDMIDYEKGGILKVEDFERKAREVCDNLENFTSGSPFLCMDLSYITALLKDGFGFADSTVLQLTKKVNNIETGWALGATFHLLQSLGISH
Experimental: as §1

[2] = Thermal shift stability assay (TSSA), aggregation temperature; type: physicochemical; design: unit not given here; details: for Tagg run1 / Tagg run2 / Tagg run3: mAb2 VH/Vk, human IgG1 Fc mutation formats, temperature of aggregation; for Tagg Mean: mean of run1-run3
Experimental: The resulting antibodies were tested for stability in the following reference formulation at a concentration of approximatively 7 mg/mL: pH 6.0; histidine buffer (10 mM); sucrose (200 mM); NaCl (50 mM); Polysorbate 80 (PS80) (0.2 g/L). […] So for this study the concentration is set at 0.2 g/L. The stability of the formulations was monitored in two storage conditions (at +5° C.±3° C. and at +40±3° C. For each study, 3 times point were performed: TO, T15D (15 days) and T1M (1 month). A freeze thaw (F/T) and a thermal shift stability assay (TSSA) were conducted for the format comparison. To perform F/T cycles, the samples were frozen at least 2 hours at −20° C. and thawed at least 1 hour at room temperature, the F/T cycle is repeated three times and samples are tested 24 h after the last Freeze/Thaw cycle. At each time point, the following tests were performed: • Particulate Matter (MFI) • Visual Inspection (Appearance) • Impurities (SE-HPLC) • Turbidity (400 nm) • Protein Concentration (280 nm) (performed with Nanodrop, Thermo Fisher Scientific Inc.)
These aromatic residues confer a relatively high predicted hydrophobicity to the antibody. However, the aromatic residues in these antibodies are believed to be important for antibody function and can probably not be replaced by a non-aromatic residue without a reduction or loss of activity. […] Aggregation temperature is correlated with the intrinsic stability. The higher the TAgg, the higher the stability of the protein. […] The stability of each of the Fc domain of human IgG1 isotype comprises an amino acid substitution at Kabat residue(s) 234, 235, 237, 330 and/or 331 (L234A/L235E/P331S substitutions, L234F/L235E/P331S substitutions, L234A/L235E/G237A/P331S substitutions, and L234A/L235E/G237A/A330S/P331S substitutions) improved the antibody, as shown in the table below. Such mutations can therefore enhance the pharmacological properties and/or activity of the antibody.

B1: mAb3 (antibody, human IgG1, V domains shown)
VH: QVQLVQSGSELKKPGASVKVSCKASGYTFTHYGMNWVRQAPGKGLKWMGWINTYTGEPTYADDFKGRFVFSLDTSVSTAYLQISSLKAEDTAVYYCARRRYEGNYVFYYFDYWGQGTTVTVSS
VL: DIQMTQSPSSLSASVGDRVTITCRASENIYSYFSWYQQKPGKAPKLLIYTAKTLAEGVPSRFSGSGSGTDFTLTISSLQPEDFATYYCQHHYVTPYTFGGGTKVEIK
notes: Produced as Fc silent recombinant human IgG1 with heavy chain N297Q (Kabat EU numbering) and huCk constant domain; also called anti-CD39 antibody mAb3
inhibition of CD39 enzymatic activity (AMP generated by Ramos cells, Maldi TOF) [1]: ≥ 90%
binding result (Human CD39-L2): no binding
binding result (Human CD39-L3): no binding
binding result (Human CD39-L4): no binding

B2: L234F/L235E/P331S: mAb2 variable regions as human IgG1 with L234F/L235E/P331S; heavy chain SEQ ID NO: 26, light chain SEQ ID NO: 9 (antibody)
heavy: QVQLVQSGSELKKPGASVKVSCKASGYTFTHYGMNWVRQAPGQGLKWMGWINTYTGEPTYADDFKGRFVFSLDTSVSTAYLQISSLKAEDTAVYYCARRRYEGNYVFYYFDYWGQGTTVTVSSASTKGPSVFPLAPSSKSTSGGTAALGCLVKDYFPEPVTVSWNSGALTSGVHTFPAVLQSSGLYSLSSVVTVPSSSLGTQTYICNVNHKPSNTKVDKRVEPKSCDKTHTCPPCPAPEFEGGPSVFLFPPKPKDTLMISRTPEVTCVVVDVSHEDPEVKFNWYVDGVEVHNAKTKPREEQYNSTYRVVSVLTVLHQDWLNGKEYKCKVSNKALPASIEKTISKAKGQPREPQVYTLPPSREEMTKNQVSLTCLVKGFYPSDIAVEWESNGQPENNYKTTPPVLDSDGSFFLYSKLTVDKSRWQQGNVFSCSVMHEALHNHYTQKSLSLSPGK
VL: B1 VL
modifications: Chimeric
Tagg run1 [2]: 67.65
Tagg run2 [2]: 67.87
Tagg run3 [2]: 68.34
Tagg Mean [2]: 68.0

B3: L234A/L235E/P331S: mAb2 variable regions as human IgG1 with L234A/L235E/P331S; heavy chain SEQ ID NO: 27, light chain SEQ ID NO: 9 (antibody)
heavy: B2 heavy with F240A
VL: B1 VL
modifications: Chimeric
Tagg run1 [2]: 66.50
Tagg run2 [2]: 66.91
Tagg run3 [2]: 67.77
Tagg Mean [2]: 67.1

B4: L234A/L235E/G237A/A330S/P331S: mAb2 variable regions as human IgG1 with L234A/L235E/G237A/A330S/P331S; heavy chain SEQ ID NO: 28, light chain SEQ ID NO: 9 (antibody)
heavy: B2 heavy with F240A, G243A, A336S
VL: B1 VL
modifications: Chimeric
Tagg run1 [2]: 66.35
Tagg run2 [2]: 67.58
Tagg run3 [2]: 67.07
Tagg Mean [2]: 67.0

B5: L234A/L235E/G237A/P331S: mAb2 variable regions as human IgG1 with L234A/L235E/G237A/P331S; heavy chain SEQ ID NO: 29, light chain SEQ ID NO: 9 (antibody)
heavy: B2 heavy with F240A, G243A
VL: B1 VL
modifications: Chimeric
Tagg run1 [2]: 66.08
Tagg run2 [2]: 66.55
Tagg run3 [2]: 66.29
Tagg Mean [2]: 66.3

The remaining lines, values ahead:

inhibition of CD39 enzymatic activity (AMP generated by Ramos cells, Maldi TOF) [1]: ≥ 90%
binding result (Human CD39-L2): no binding
binding result (Human CD39-L3): no binding
binding result (Human CD39-L4): no binding
B6: mAb1 (antibody, human IgG1, V domains shown)
VH: B1 VH with K43Q, K46E
VL: B1 VL
notes: Produced as Fc silent recombinant human IgG1 with heavy chain N297Q (Kabat EU numbering) and huCk constant domain; also called anti-CD39 antibody mAb1

inhibition of CD39 enzymatic activity (AMP generated by Ramos cells, Maldi TOF) [1]: ≥ 90%
binding result (Human CD39-L2): no binding
binding result (Human CD39-L3): no binding
binding result (Human CD39-L4): no binding
B7: mAb2 (antibody, human IgG1, V domains shown)
VH: B1 VH with K43Q
VL: B1 VL
notes: Produced as Fc silent recombinant human IgG1 with heavy chain N297Q (Kabat EU numbering) and huCk constant domain; also called anti-CD39 antibody mAb2

inhibition of CD39 enzymatic activity (AMP generated by Ramos cells, Maldi TOF) [1]: ≥ 90%
binding result (Human CD39-L2): no binding
binding result (Human CD39-L3): no binding
binding result (Human CD39-L4): no binding
B8: mAb4 (antibody, human IgG1, V domains shown)
VH: B1 VH with V2I, T74A
VL: B1 VL
notes: Produced as Fc silent recombinant human IgG1 with heavy chain N297Q (Kabat EU numbering) and huCk constant domain; also called anti-CD39 antibody mAb4

inhibition of CD39 enzymatic activity (AMP generated by Ramos cells, Maldi TOF) [1]: ≥ 90%
binding result (Human CD39-L2): no binding
binding result (Human CD39-L3): no binding
binding result (Human CD39-L4): no binding
B9: mAb6 (antibody, human IgG1, V domains shown)
VH: B1 VH
VL: B1 VL with I48V
notes: Produced as Fc silent recombinant human IgG1 with heavy chain N297Q (Kabat EU numbering) and huCk constant domain; also called anti-CD39 antibody mAb6

inhibition of CD39 enzymatic activity (AMP generated by Ramos cells, Maldi TOF) [1]: ≥ 90%
binding result (Human CD39-L2): no binding
binding result (Human CD39-L3): no binding
binding result (Human CD39-L4): no binding
B10: mAb5 (antibody, human IgG1, V domains shown)
VH: B1 VH with K43Q
VL: B1 VL with I48V
notes: Produced as Fc silent recombinant human IgG1 with heavy chain N297Q (Kabat EU numbering) and huCk constant domain; also called anti-CD39 antibody mAb5
